Patent US20190031754A1 (Scripps Research, published 2019)
Residue numbers refer to the chain shown, from its start.

B1: chimeric rabbit/human Fab XBR2-327 (Fab, V domains shown)
VH: QEQLKESGGGLFKPTDTLTLTCTVSGFSLSSGAISWVRQAPGNGLEYIGFVNSLGNTYYANWAKSRSAITRNTNENTVTLKMTSLAAADTATYFCAKDYGNWAFDPWGPGTLVTVSS
VL: DPVLTQTPSSVSAAVGGTVAINCQASQSISSYLSWYQQKPGQPPKLLIYGASKLASGVPSRFSGSGSGTEYTLTISGVQREDAATYYCLGGYASASYRTAFGGGTKLEIK
B2: chimeric rabbit/human Fab ERR2-302 (Fab, V domains shown)
VH: QKQLVESGGGLVKPGGSLTLTCTVSGFSLSSYAIGWVRQAPGNGLEWIGIINSYGSTYYASWAKSRSTITRNTNLNTVTLKMTSLTAADTATYFCARSPYGYVSAWGYHRLDLWGQGTLVTISS
VL: SYELTQLPSVSVSLGQTARITCGGASIGSKVVHWYQQKPGLAPGLLIYDDDERPSGVPDRFSGSNSGDTATLTISGAQAGDEAEYYCQLWDGSDVVFGGGTQLTVTG
B3: chimeric rabbit/human Fab XBR2-401 (Fab, V domains shown)
VH: QSVKESEGGLFKPTDTLTLTCTVSGFSLSSYGVTWVRQAPGSGLEWIGYINTAGNTYYASWAKSRSTITRNTNENTVTLKMTSLTAADTATYFCARDWTSLNIWGPGTLVTVSS
VL: DPMLTQTPSSTSTAVGDTVTIKCQASQSISSDLSWYQQKPGQRPKLLIYQASTLASGVPSRFKGSGYGTEYTLTISGVQREDAAIYYCLGGYADASYRTAFGGGTKLEIK
notes: also called Fab 4-1
B4: chimeric rabbit/human Fab ERR2-TOP35 (Fab, V domains shown)
VH: QSVKESEGGLFKPMDTLTLTCTVSGFSLNTYGVSWVRQAPGNGLEWIGAVGSSGATNYASWAKSRSTITRNTNENTVTLKMTSLTAADTATYFCARDGYYSSGWGPYFSIWGPGTLVTVSS
VL: SFVLTQPASVQVNLGQTVSLTCTAETLRSSYASWYQQKPGQAPVLLIYRDTSRPSGVPDRFSGSSSGNTATLTISGAQAGDEADYYCATSDGSGSRYYVFGGGTQLTVTG
B5: chimeric rabbit/human Fab XBR2-433 (Fab, V domains shown)
VH: B4 VH with M14T, N29S, V50I, A55S, T56A, S64D, E74L, S109N, V119I
VL: SFVLTQPASVQVNLGQTVSLTCTADTLSRSYASWYQQKPGQAPVLLIYRDTSRPSGVPDRFSGSSSGNTATLTISGAQAGDEADYYCATSGGSGSNPQYVFGGGTQLTVTG
notes: also called Fab 4-33
B6: chimeric rabbit/human Fab ERR2-308 (Fab, V domains shown)
VH: QEQLEESGGRLVTPGTPLTLTCAVSGFSLSNYAMGWVRQAPGEGLEYIGWISAGGGAYYASWVNGRFTISKTSSTVDLKMTSLTAADTATYFCARGASNGCDLWGPGTLVTVSS
VL: DPMLTQTPSSVSAVVGGTVTIKCQASQSITSWLSWYQQKPGQPPKLLIYGASHLASGVPSRFKGSGYGTEFTLTISGIQREDAATYYCLGGYSNSDIVFGGGTELEIL
B7: chimeric rabbit/human Fab XBR2-416 (Fab, V domains shown)
VH: QEQLEESGGRLVTPGTPLTLTCTVSGFSLSSYWMSWVRQAPGKGLEWIGTITPGGNTDYATWAKARFTVSKTSTTVDLKITSPTTEDTATYFCARGIGGAADLWGPGTLVTISS
VL: AQVLTQTPSSTSAAVGGTVTIKCQASQSISSSDLSWYQQKPGQPPKLLIYATSYLASGVPSRFKGSGSGTEYTLTISGVQREDAATYYCLGGYPNTSYRSAFGGGTKVEIK
notes: also called Fab 4-16

Biological target: T1, hFc-hROR1 (human, UniProt Q01973 30-403, limits assumed)
T1 construct: also called ROR1 (ELISA control); not shown: human Fc (hFc) of pCEP4-hFc-hROR1 (Yang et al., 2011)
Test: ELISA, coated antigen 100 ng/well, anti-His HRP, absorbance 405 nm

T1 sequence (Q01973 30-403 limits assumed): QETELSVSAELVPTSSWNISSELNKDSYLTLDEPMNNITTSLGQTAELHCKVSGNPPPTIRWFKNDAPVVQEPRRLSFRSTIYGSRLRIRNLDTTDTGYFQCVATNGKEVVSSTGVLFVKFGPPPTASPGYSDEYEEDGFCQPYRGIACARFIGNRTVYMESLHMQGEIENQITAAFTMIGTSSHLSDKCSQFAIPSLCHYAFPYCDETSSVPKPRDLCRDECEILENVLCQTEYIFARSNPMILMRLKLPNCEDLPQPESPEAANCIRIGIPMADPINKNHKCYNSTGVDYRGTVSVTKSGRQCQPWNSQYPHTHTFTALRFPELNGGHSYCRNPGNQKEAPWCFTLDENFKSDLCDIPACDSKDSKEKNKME

Binding result, no binding (tested: 100 ng/50 µL):
B1, B2, B3, B4, B5, B6, B7

Biological target: T2, BSA (bovine, UniProt P02769)
T2 construct: also called bovine serum albumin
Test: as above

T2 sequence (P02769 25-607 limits assumed): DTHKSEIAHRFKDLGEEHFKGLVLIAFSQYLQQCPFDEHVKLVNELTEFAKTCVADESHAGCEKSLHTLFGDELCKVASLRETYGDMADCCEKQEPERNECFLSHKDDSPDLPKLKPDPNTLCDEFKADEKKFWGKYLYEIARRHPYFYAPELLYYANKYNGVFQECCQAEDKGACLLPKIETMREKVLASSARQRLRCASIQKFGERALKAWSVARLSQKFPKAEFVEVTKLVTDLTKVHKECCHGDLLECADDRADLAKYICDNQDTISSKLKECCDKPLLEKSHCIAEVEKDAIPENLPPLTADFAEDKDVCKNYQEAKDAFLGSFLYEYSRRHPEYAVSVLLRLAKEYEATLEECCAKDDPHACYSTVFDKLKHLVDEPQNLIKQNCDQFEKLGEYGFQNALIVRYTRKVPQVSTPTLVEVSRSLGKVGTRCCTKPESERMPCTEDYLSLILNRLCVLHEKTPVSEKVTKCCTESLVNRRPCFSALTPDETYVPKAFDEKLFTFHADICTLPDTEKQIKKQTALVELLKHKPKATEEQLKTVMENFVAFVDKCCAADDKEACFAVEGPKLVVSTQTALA

Binding result, no binding (tested: 100 ng/50 µL):
B1, B2, B3, B4, B5, B6, B7
